Assay results published in the supplement of paper PMC10724198.
± gives the standard deviation of the averaged measurements.

Test system: Saccharomyces cerevisiae
Experiment: protein stability index of tFT-peptide fusion (C-terminal peptide) (PSI (0-1 scale)); higher = more stable (slower turnover)
Conditions: genetic background: das1 deletion; temperature: 30 C
Experimental: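 MPS profiling in S. cerevisiae of the yeast C-terminome library: the last 12 aa of each annotated ORF are fused to the C-terminus of a sfGFP-mCherry timer, after a GGGS linker. Cells are FACS-sorted into 8 mCherry/sfGFP bins and deep-sequenced. PSI runs from 0 (unstable) to 1 (stable); wild type and das1Δ backgrounds, two technical replicates each.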

| Sequence | protein stability index |
| --- | --- |
| LYGKYNYAAQKV [YDL124W C-terminal 12 aa] | 0.692 ± 0.013 |
| LYKRWVPGRNRD [SEN2 C-terminal 12 aa] | 0.696 ± 0.0095 |
| LYVTVFNRSDEA [AVT7 C-terminal 12 aa] | 0.6773 ± 0.0036 |
| MEDILDETTELD [ATG40 C-terminal 12 aa] | 0.7155 ± 0.0025 |
| MEKENSGLIAFS [HOS2 C-terminal 12 aa] | 0.7089 ± 0.0061 |
| MELWYTCLSKNL [YCR050C C-terminal 12 aa] | 0.694 ± 0.048 |
| MERRARQQRGQD [MND2 C-terminal 12 aa] | 0.71114 ± 0.0003 |
| MFGVHDKSVIIE [NSE5 C-terminal 12 aa] | 0.692 ± 0.058 |
| MFKFNVHKKSKV [TAD2 C-terminal 12 aa] | 0.72 ± 0.015 |
| MGDEYVSSDEDF [HEF3 C-terminal 12 aa] | 0.7279 ± 0.0024 |
| MGISSNSFQGVN [KDX1 C-terminal 12 aa] | 0.70379 ± 8.7e-05 |
| MGVFILFLDYVG [UFE1 C-terminal 12 aa] | 0.277 ± 0.032 |
| MKGPAALWDVQF [ARP9 C-terminal 12 aa] | 0.724 ± 0.012 |
| MKRSASYTGAKV [TPS2 C-terminal 12 aa] | 0.7 ± 0.02 |
| MLCTLTGYQNND [NUP192 C-terminal 12 aa] | 0.7282 ± 0.0051 |
| MPGGMPGMPGMM [HSP60 C-terminal 12 aa] | 0.7 ± 0.00077 |
| MQRVSTQHEKET [PMA1 C-terminal 12 aa] | 0.715 ± 0.0091 |
| MRLTHKSKKKMK [SUE1 C-terminal 12 aa] | 0.72 ± 0.026 |
| MSKLGLIPKDFQ [HIS4 C-terminal 12 aa] | 0.6931 ± 0.0056 |
| MSLLGLVPVDRM [MSR1 C-terminal 12 aa] | 0.696 ± 0.00089 |
| MTGILKDYSHRV [TFA2 C-terminal 12 aa] | 0.715 ± 0.0083 |

| Sequence | protein stability index |
| --- | --- |
| MVNEWIHGGFSL [PRC1 C-terminal 12 aa] | 0.73 ± 0.025 |
| MYGLGIRDCCIM [RCY1 C-terminal 12 aa] | 0.7921 ± 0.0075 |
| NAIKNWTGVNVK [MIC26 C-terminal 12 aa] | 0.7 ± 0.0014 |
| NAKKGSKIEEIE [PTC3 C-terminal 12 aa] | 0.6731 ± 0.0047 |
| NCIETFVAEKTT [SRB6 C-terminal 12 aa] | 0.679 ± 0.014 |
| NDGTFLDEVTKN [OPI10 C-terminal 12 aa] | 0.6922 ± 0.0066 |
| NDKGEQVVGGNE [TMA16 C-terminal 12 aa] | 0.663 ± 0.042 |
| NDLITYMTKAAK [CYC7 C-terminal 12 aa] | 0.722 ± 0.031 |
| NEDSMEIDDDLD [HSP104 C-terminal 12 aa] | 0.6988 ± 0.0014 |
| NEKENSLSLSRL [MGT1 C-terminal 12 aa] | 0.7183 ± 0.0017 |
| NELRMSSSSLTN [VHS1 C-terminal 12 aa] | 0.6718 ± 0.0013 |
| NERGLSSNYQTI [FMP42 C-terminal 12 aa] | 0.7217 ± 0.0025 |
| NGKTIKDATDNK [COX19 C-terminal 12 aa] | 0.669 ± 0.015 |
| NGRYIDTEFESM [LCB4 C-terminal 12 aa] | 0.6854 ± 0.0012 |
| NIRIVNGLQNTR [TIM8 C-terminal 12 aa] | 0.712 ± 0.014 |
| NKIANFVKNAKK [TRP1 C-terminal 12 aa] | 0.708 ± 0.02 |
| NKLKTLLAKIFD [IPI1 C-terminal 12 aa] | 0.708 ± 0.02 |
| NPGFIVEKRTID [MRPL33 C-terminal 12 aa] | 0.697 ± 0.035 |
| NPKNLINDVRRT [CVM1 C-terminal 12 aa] | 0.704 ± 0.011 |
| NPPISVSVTGDE [SRT1 C-terminal 12 aa] | 0.687 ± 0.0084 |
| NPWGGYSQVQSK [COX5A C-terminal 12 aa] | 0.728 ± 0.02 |

| Sequence | protein stability index |
| --- | --- |
| NQGSDVSFNEED [TOP2 C-terminal 12 aa] | 0.709 ± 0.02 |
| NQIIQARLKDLE [DNF3 C-terminal 12 aa] | 0.686 ± 0.021 |
| NQKKKFKMEFRG [SAP30 C-terminal 12 aa] | 0.6956 ± 0.0027 |
| NRKIARMRHSKR [NUP1 C-terminal 12 aa] | 0.706 ± 0.022 |
| NRSSKIVSIRED [CPR8 C-terminal 12 aa] | 0.702 ± 0.03 |
| NTDHKAGRSHLQ [PTC2 C-terminal 12 aa] | 0.713 ± 0.013 |
| NTEPPEAPAATN [AFG3 C-terminal 12 aa] | 0.73 ± 0.032 |
| NTGSKKSVPTSS [AQY3 C-terminal 12 aa] | 0.7037 ± 0.0017 |
| NTTHYNDTLLKQ [PHO3 C-terminal 12 aa] | 0.738 ± 0.0097 |
| NYLVYHIEEENH [MNN9 C-terminal 12 aa] | 0.673 ± 0.031 |
| PAAWRALTQYIS [PTH1 C-terminal 12 aa] | 0.7186 ± 0.0024 |
| PCALYFKDHTAY [HUA2 C-terminal 12 aa] | 0.699 ± 0.021 |
| PDDFEFGDDDFM [HCR1 C-terminal 12 aa] | 0.712 ± 0.031 |
| PEHPGNKRAGSG [YER145C-A C-terminal 12 aa] | 0.6885 ± 0.00081 |
| PFDYSDIPAADI [GPI10 C-terminal 12 aa] | 0.714 ± 0.023 |
| PFEDKFEIHDER [OPY2 C-terminal 12 aa] | 0.74255 ± 0.00063 |
| PIDPKAFTFDSR [YCL012C C-terminal 12 aa] | 0.73549 ± 0.00064 |
| PIQDFIFNLVGE [VTC3 C-terminal 12 aa] | 0.687 ± 0.0086 |
| PKSFVPRDIEKK [YGR265W C-terminal 12 aa] | 0.695 ± 0.018 |
| PLFADYLNKNLN [KTI12 C-terminal 12 aa] | 0.7162 ± 0.0014 |
| PLQWLSTWDIAP [PMT6 C-terminal 12 aa] | 0.787 ± 0.02 |

| Sequence | protein stability index |
| --- | --- |
| PLSYDPLGNLIR [TSR3 C-terminal 12 aa] | 0.7339 ± 0.0027 |
| PLTLISLLFAFI [YPS1 C-terminal 12 aa] | 0.619 ± 0.021 |
| PNEFLRDQSTDI [APL5 C-terminal 12 aa] | 0.707 ± 0.031 |
| PQCGQVLSKGST [YGL132W C-terminal 12 aa] | 0.703 ± 0.0092 |
| PQMARKQRGHIG [SDS23 C-terminal 12 aa] | 0.678 ± 0.024 |
| PSGNIVMERLDE [UBX3 C-terminal 12 aa] | 0.6901 ± 0.0013 |
| PSIARILEFMQS [SAY1 C-terminal 12 aa] | 0.729 ± 0.013 |
| PVFTASQLRFAW [ESA1 C-terminal 12 aa] | 0.738 ± 0.018 |
| PVGAGNEPINPE [URN1 C-terminal 12 aa] | 0.684 ± 0.013 |
| PVTAIALLEARR [YER190C-A C-terminal 12 aa] | 0.6783 ± 0.005 |
| PYNFIQLLHQGL [HOF1 C-terminal 12 aa] | 0.725 ± 0.011 |
| QAYIYIYIHIVN [EST2 C-terminal 12 aa] | 0.195 ± 0.0094 |
| QEEEEDVATDSE [YRO2 C-terminal 12 aa] | 0.677 ± 0.014 |
| QEIQKKPSQQVS [BIG1 C-terminal 12 aa] | 0.698 ± 0.0083 |
| QFFLAPKFNDEE [POL30 C-terminal 12 aa] | 0.712 ± 0.032 |
| QFQTLNNLYFAQ [IME4 C-terminal 12 aa] | 0.715 ± 0.02 |
| QGHGPVSPSPTK [PTM1 C-terminal 12 aa] | 0.701 ± 0.022 |
| QGPRPGNWDQED [CCT8 C-terminal 12 aa] | 0.7177 ± 0.0017 |
| QGYKPNQSDRYY [PIN2 C-terminal 12 aa] | 0.68 ± 0.013 |
| QHYDEYYHELTN [PHO8 C-terminal 12 aa] | 0.6964 ± 0.0064 |
